The record followed here is the nanobody polyreactivity screen of Harvey et al. (2022).

The nature of this data set: yeast display, Sf9 membrane polyspecificity reagent, FACS + sequencing; frameworks hold sequencing errors. In a few lines:
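Sorting gates, low and high (top ~1%), were placed on anti-HA fluorescence to track expression and on streptavidin fluorescence to track reagent binding. A clone's polyreactivity label is taken from the gate it came out of. The reagent was 10% biotinylated, detergent-solubilized Sf9 membrane, applied for 1 hour at 4 °C to galactose-induced yeast display cells.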
As for “QVQLVESGGVLVQAGGSLRLSCAASGSISSVYAMGWYRQAPGKDRELVAGITSGGSTNYADSVKGRFTISRDNAKITVYLQMNSLKPEDTAVYYCAAVYKGAGTHFDVFVKEFDYWRQGTQVTVSS”, the “polyreactivity (PSR sort gate)” value was “low polyreactivity”.

As to “QVQLVESGGVLVQAGGSLRLSCAASGSTFEDYTMGWYRQAPRKVRELVAISTRGGTYYADSVKGRFTSSRDNPKNTVYLQRNSLKPEDTAVYYCNKRFGYYSWDQYSRDYWGQGTQVTVSS”, the “polyreactivity (PSR sort gate)” value is “low polyreactivity”.

For the sequence “QVQLVESGGVLVQAGGSLRLSCAASGSTFGKNTMGWYRQAPGKERELVAAISRGVSTYYAYSVKGRFTISRDNATNTFYLQMNSLKPEDTALYYCAAQEAYRWYGFDFWGQGTQVTVLS”, the “polyreactivity (PSR sort gate)” value is “high polyreactivity”.

With “QVQLVESGGVLVQAGGSLRLSCAASGSTFGRYTMGWYRQAPGKERELVAVITKSGGSTYYADSVKGRFTISRDNAKNTVYLQMNSLKPEDTAVYYCAAGVAWRFYSWGQGTQVTVSS”, the “polyreactivity (PSR sort gate)” value is on record as “high polyreactivity”.

On to “QVQLVESGGVLVQAGGSLRLSCAASGSTFYPNAMGWYRQAPGQEREFVAAISDGGSTTYADSVKGRFTISRDNAKNTVYLQMNSLKPEDTAVYYCNARVGSYTPSWYYQEFDYWGQGTQVTVSS”, for which the “polyreactivity (PSR sort gate)” value is given as “low polyreactivity”.

For the sequence “QVQLVESGGVLVQAGGSLRLSCAASGSTIPYNTMGWYRQAPRKERELVAAITRTSYADTVKGRFTISRDNAKNTVYLEMISLKREDTAVYYCAADKSFYYYLFGYDYWGQGTQVTVSS”, the “polyreactivity (PSR sort gate)” value was “low polyreactivity”.

As for “QVQLVESGGVLVQAGGSLRLSCAASRGIFSGYAMGWYRQAPGKERELVASITRRGSSTYYADSVKGPFTISRDSAKNTVYLQMNSLNPEDTAVYYCHAVLRYHVLYRGYDYWGQGTQLTVSS”, the “polyreactivity (PSR sort gate)” value is “high polyreactivity”.

Turning to “QVQLVESGGVLVQAGGSLRLSCAPSGRIFNYYAMGWYRQAPGKERELVAAISSSGGRTYYADSVKGRFTISRDNAKNTVYLQMNSLKPEDTAVYYCAAYDSLRYSTYDYWGQGTQVTVSS”, the “polyreactivity (PSR sort gate)” value was “high polyreactivity”.

As for “QVQLVESGGVLVQAGGSLRLSCASSGSTFTKYAMGWYRQAPGKERELVAAISRSGGGTYYADSVKGRFTISRDNAKNTVYLQMNSLKPEDTAVYYCNAALFRGAQFDYWGQGTQVTVSS”, the “polyreactivity (PSR sort gate)” value was “high polyreactivity”.

“QVQLVESGGVLVQAGGSLRLSCDASGRIFKYNAMGWYRQAPGKERELVDVITSGVSTYYADSVKGRFTISRDNAKNTVYLQMNSLKPEDTAVYYCAKKYYKVHKFDYWCQGTQVTVSS”: the “polyreactivity (PSR sort gate)” value is on record as “low polyreactivity”.

With “QVQLVESGGVLVQAGGSLRLSCPASGRTFTYNAMGWYRQAPGKERELVAVITNSGGSTYYADSVKGRFTISRDNPKNTVYLQMNSLKPEDTAVYYCAADYFYRYWYRFYYWGQGTQVTVSS”, the “polyreactivity (PSR sort gate)” value is on record as “high polyreactivity”.

On to “QVQLVESGGVLVQAGGSLRLTCAASASILYVYAMGWYRHAPGKERELVATITGRVVSTNYADSVKGRFTSSRDNAKNTVYLQMNSLKTEDTALYYCAASTRRRRGEYDYCGQGTQVTVSS”, for which the “polyreactivity (PSR sort gate)” value is given as “high polyreactivity”.

For “QVQLVESGGVLVQAGGSLRLTCAASGSNFVTNAMGWYRQAPGKERELVAAISVSGGSTYYADSVKGRFTISRDNAKNTVYLQMNSLKPEDTAVYYCNTVRSPAGHDYWGQGTQVTVSS”, the “polyreactivity (PSR sort gate)” value is reported as “low polyreactivity”.

For the sequence “QVQLVESGGVLVQAGGSPRLSCAASGRTYAYYPMGWYRQAPGKERELVARITRGGSTYYADSVKGRFTISRDNAKNSVYLQMYSLIPDDTAVYYCNRYQWQHYTSVYLRTGSDYWGQGTQVTVSS”, the “polyreactivity (PSR sort gate)” value is given as “high polyreactivity”.

Regarding “QVQLVESGGVLVQAVASLRVSCAASGRILDYNTMGWYRPAPGKERELVAAISFSGGRTYYADSVKGRFTISRDNAKNTFYLQMNSLKPEDTAVYYCAATVGAASRYYYWGQGSQVTVSS”, the “polyreactivity (PSR sort gate)” value is on record as “high polyreactivity”.

As to “QVQLVESGGVLVQSGGSLRLSCAASGITLSRYAMGWYRQAPGKERELVAAISRRGGSTYYADSVKGRFTISRDNAKNSVYLQLNSLKPEDTAVDYCAATRYASLSDSGFNYWGQGTQVTVSS”, the “polyreactivity (PSR sort gate)” value is on record as “high polyreactivity”.

For the sequence “QVQLVESGGVLVQSGGSLRLSCAASGLIFTWNAMGWYRQAPGKERELVAPISTGGSTSYADSVKGRFTISRDNAKNTVYLQMNSLKPEDTAVYYCARDSSIWSHGSWYDYWGQGTHVTVSS”, the “polyreactivity (PSR sort gate)” value was “low polyreactivity”.

On to “QVQLVESGKGLVQAGGILRLSCAASGLIFGFNAMGWYRQAPGKERELVAAIYGSGGTTYYADSVKGRFTISRDNAKNTVYLQMNSLKPEDTAVYYCAGEYIYNVQFSWPKTPAFDYWGQGTLVTVSS”, for which the “polyreactivity (PSR sort gate)” value is given as “low polyreactivity”.

For the sequence “QVQLVESGKGLVQAGGSLRLSCAASGITITIYAMGWYRNAPGKERELVAAITWRGGRTYYADSVKGRFTISRDNAKNTVYLQMNSLKPEDTAVYYCNALFGSYPYYWFEYWGHGTQVTVSS”, the “polyreactivity (PSR sort gate)” value was “high polyreactivity”.

Consider “QVQLVESGRALVQAGGSLRLSCAASGNTFEDYAMGWYRQAPGKERELVAAINSGGSTNYADSVKGRFTISRDNAKNTVYLQLNSLKPEDTAVYYCAAEPGEGFDYWGQGTQVTVSS”, for which the “polyreactivity (PSR sort gate)” value is reported as “low polyreactivity”.

Take “QVQLVESGRCLVQAGCSLRLSCAASGYTFSRSAMGWYRQAPGKERELVAAISWSGGSTYYADSVKGRFTISRDNAKNTVYLQMNSLKPEDTAVYYCIKVRYVSQTAFYYWGQGTQVTVSS”: the “polyreactivity (PSR sort gate)” value is listed as “high polyreactivity”.

In the case of “QVQLVESGRCLVQDGRSLRLSCAASGRTFYGNAMGWYRQAPAKERELVAAISRSGGRTYYADSVKGRFTISRDNAKNTVYLEMISLKPEDTAVYYFASEIRFWYGYYYWGQGTQVTVSS”, the “polyreactivity (PSR sort gate)” value is “high polyreactivity”.

In the case of “QVQLVESGRGIVQAGRSLRLSCPASGRIYPNAIGWYRQAPGKEREFVAAISRSDGSTYYADSVNGRFTISRDNAKNTVYLQMNSLKPEDTAVYYCATDYRFTSRTANFDYWGQGTLVTVSS”, the “polyreactivity (PSR sort gate)” value is “low polyreactivity”.

Turning to “QVQLVESGRGLDQAGGSLRLSCAASASTFAWYDMGCYRHAPGKEREFVAAIDYGGGSTYADSVKGRFTISRDNAKNTVYLQMNSLKPEDTAVYYCNADNWVYLYDYWGQGTQVTVSS”, the “polyreactivity (PSR sort gate)” value is “low polyreactivity”.

For the sequence “QVQLVESGRGLFQAGGSLRLSCAASGFTGSYAMGWYRQAPGKVREFVAAISYRGSSTYYADSVKGRFTISRDNAKNTVYLQMNSLKPEDTAVYYCNSVHYVLYGDYDYWGQGTQVTVSS”, the “polyreactivity (PSR sort gate)” value is reported as “high polyreactivity”.

With “QVQLVESGRGLLQAGGSLRLSCASSGGIFPKYAMGWYRQAPGKEREFVASISYRGGSTYYADSVKGRFTISRDNAKNTVYFQMNSLKPDDTAVFYCAKPTYRFYWGDFDYWGQGSQVTVSS”, the “polyreactivity (PSR sort gate)” value is on record as “low polyreactivity”.

Regarding “QVQLVESGRGLVHAGGSLRLSCAASGSIFSPYAMGWYRPAPGKEREFVASITFNGGSTYYADSVKGRFTISRDNAKNTVYLQMTSLKPEDTAVYYCAATYWYDTYWLMDYWGQGTQVTVSS”, the “polyreactivity (PSR sort gate)” value was “high polyreactivity”.

For the sequence “QVQLVESGRGLVQAGCSLRLSCAASGSIFEWYAMGWSRQAPGKEMELVADITYNGGSTYYADSVKGRFTISRDNAKNTVYLQMNSLKPEDTAVYYCAADYFVQVPDYYYASEYGYWGQGTQVTVSS”, the “polyreactivity (PSR sort gate)” value is “low polyreactivity”.

With “QVQLVESGRGLVQAGGSLLLSCAASGSTFDVYAMGWYRQAPGKERELVAAIRSSGGSTFYADSVKGRFTISRDNAKNIVYLQMNSLKPEDTAVYYCAARSFVVSGYNKYYEYGDWGQGTQVTVSS”, the “polyreactivity (PSR sort gate)” value is reported as “low polyreactivity”.

In the case of “QVQLVESGRGLVQAGGSLRISCAASGITFVFYAMGWYRQAPGKEIELVAAMSWSGGITYYADSVKGRFTISRDNSKNSVYLQMNSLKPEDTAVYYCAATKRQTKYYGGTTDSIRYYWGQGTQVTVSS”, the “polyreactivity (PSR sort gate)” value is “low polyreactivity”.

With “QVQLVESGRGLVQAGGSLRLICAASGNIFWYNAMGWYRQAPGKERELVAAINWSGGSTYYADSVKGRFRISRDNAKNTVYLEMNSLKPEDTAVYYCYAEWYDGDALQWVEYWGQGTQVTVSS”, the “polyreactivity (PSR sort gate)” value is recorded as “high polyreactivity”.

As to “QVQLVESGRGLVQAGGSLRLICAASRSIFSYNAMGWYRQAPGKERELVAAIRRGGGTYYADSVKGRFTISRDNAKNTVYLQMISLKPEDTAVYYCNAVRGNNFLGDGYWGLGTQVTVSS”, the “polyreactivity (PSR sort gate)” value is “high polyreactivity”.

For “QVQLVESGRGLVQAGGSLRLRCAASGSTFVYNTMGWYRQAPGKEMELVASISSDGNTYYADSVKGRFTISRDNAKNTVYLQMNSLKPEDTAVFYCGARYYYDWRFVGYDYWGQGTQVTVSS”, the “polyreactivity (PSR sort gate)” value is reported as “low polyreactivity”.

With “QVQLVESGRGLVQAGGSLRLRCAASGYTFTRYAMGWYRQAPRKESELVAAISTSGGRTYYSDSEKGRFTISRDNAKNTVYLQMNRLKPEDTAVYSCAAPIRDGRYDYWGQGTQVTVSS”, the “polyreactivity (PSR sort gate)” value is given as “high polyreactivity”.

Regarding “QVQLVESGRGLVQAGGSLRLRCASSGRTFSSYAMGWSRQAPGKARELVAAITKRGGNTYYADSVKGRFTISRDNAKNTVYLQMNSLNPEDTAVYYCAAGWERFRNYNYWGQVTQVTVSS”, the “polyreactivity (PSR sort gate)” value is recorded as “high polyreactivity”.

Consider “QVQLVESGRGLVQAGGSLRLSCAASGFTCRWYAIGLYRQAPGKERELVAAISRDGSTNYADSVKGRFTISRDNAKNTVYLQMNSLKPEDTSVYYCAKRYYRYPYSQGDYWGQGTQVTVSS”, for which the “polyreactivity (PSR sort gate)” value was “high polyreactivity”.

With “QVQLVESGRGLVQAGGSLRLSCAASGFTFVWYAMGWYIPAPGKERELVAAISRRGTRTYYADSVKGRFTISRDNAKNTVYLQMNSLKPEDTAVYYCASESILGYDYWGQSTQVTVSS”, the “polyreactivity (PSR sort gate)” value is “high polyreactivity”.

Take “QVQLVESGRGLVQAGGSLRLSCAASGIIFYENAMGWYRQAPGKERELVADITQSGGSTYYADSVKGRFTISRDNAKNTVYLQMNSLKPEDTGVYYCAADGYDPYGGLYDYWGQGNQVTVSS”: the “polyreactivity (PSR sort gate)” value is “low polyreactivity”.

As for “QVQLVESGRGLVQAGGSLRLSCAASGIIFYENTMGWYRLAPGKERELVASISWSGGRTYNADSVKGRFTISRDNAKNTVDLQMNSLKPEDTAVYYCAGRPYYLYIYNFWGQGTQVTVSS”, the “polyreactivity (PSR sort gate)” value is “high polyreactivity”.

In the case of “QVQLVESGRGLVQAGGSLRLSCAASGIILGRYAKGWYRQAPGKERELVAVITGDGSTTYADSVKGRFTISRDNAKNTVYLQMNSLKPEDTAVYYCNAAVEGSLNGYEYWGQGTQVTVSS”, the “polyreactivity (PSR sort gate)” value is reported as “low polyreactivity”.

As to “QVQLVESGRGLVQAGGSLRLSCAASGITFGYYDMGWYRQAPGKERELVAAIDWTGGGTYYADSVKGRFTISRDYAKNTVYLQMNSVKPVDTAVYYCIDHAGGDSGVSYYPEYDYWGQGTQVTLSS”, the “polyreactivity (PSR sort gate)” value was “low polyreactivity”.
